Laboratory results reported in publication PMC2923189, “An Oligopeptide Transporter of Mycobacterium tuberculosis Regulates Cytokine Release and Apoptosis of Infected Macrophages” (PLoS ONE, 2010).

How the values were obtained:
Experiment in all cases: radioligand binding
[1] = biological target: OppAMTB mutant N110A (Mycobacterium tuberculosis) (UniProt P9WGU5)
[2] = biological target: OppAMTB mutant D494N (Mycobacterium tuberculosis) (UniProt P9WGU5)
[3] = biological target: OppAMTB mutant F496D (Mycobacterium tuberculosis) (UniProt P9WGU5)
[4] = biological target: OppAMTB mutant N230G (Mycobacterium tuberculosis) (UniProt P9WGU5)
[5] = biological target: OppAMTB mutant G109S (Mycobacterium tuberculosis) (UniProt P9WGU5)

Measured: loss of binding activity against wild type

bradykinin (nonapeptide)
> 50%: all assays above

glutathione (tripeptide)
> 50%: all assays above
